Assay results reported in article PMC2699591.

Biological target: GST-LB3-coil2 (Xenopus)
Test: biosensor binding studies

Q: For “6His-tagged full-length Nudel (6His-Nudel, 1-345 aa) (natural protein)”, which Kd is on record?
A: 50 µM
